# Marks after values point to notes of the source that are not given here.
# Experiments:
# [1] = system: EGFR-mutated NSCLC; settings: cited from earlier work
# [2] = Phase I study U31402-A-U102, HER3-DXd i.v. once every 3 weeks: safety; format: in vivo, human
# [3] = all patients 3.2/4.8/5.6/6.4 mg/kg (n = 81)
molecule,measurement,setting,value
"C=CC(=O)Nc1cc(Nc2nccc(-c3cn(C)c4ccccc34)n2)c(OC)cc1N(C)CCN(C)C [osimertinib, reference compound]",Median OS,[1]; third-generation EGFR TKI compared with first-generation EGFR TKIs,38.6 months
Patritumab deruxtecan [HER3-DXd],Patients who experienced dose-limiting toxicities,"[2]; 4.8 mg/kg dose group, grade 3 neutrophil count decreased, grade 4 platelet count decrease, white blood cell count decrease",1 patient
same,Patients who experienced dose-limiting toxicities,"[2]; 6.4 mg/kg dose group, grade 4 platelet count decrease",3 patients
same,Patients who experienced dose-limiting toxicities,"[2]; […] dose group, grade 3 febrile neutropenia and grade 4 platelet count decrease",1 patient
same,"Adjudicated treatment-related ILD, patients",[2]; all doses (4/81),5%
same,"TEAEs associated with death, patients","[2]; all doses (5/81), none judged related to study treatment",6%
same,"Treatment discontinued due to TEAEs, patients",[2]; all doses (7/81),9%
same,"Grade 4 thrombocytopenia, patients",[2]; all doses (11/81),13.6%
same,"Grade ≥3 neutropenia, patients",[2]; all doses (12/81),15%
same,"TEAEs associated with dose reduction, patients",[2]; all doses (18/81),22%
same,"Grade ≥3 thrombocytopenia, patients",[2]; all doses (21/81),26%
same,"TEAEs associated with dose interruption, patients",[2]; all doses (30/81),37%
same,"TEAE nausea, patients",[2]; all doses (49/81),60%
same,"Grade ≥3 TEAEs, patients",[2]; all doses (52/81),64%
same,"TEAE fatigue, patients",[2]; all doses (52/81),64%
same,Adjudicated ILD,[2]; [3],5 (6)^e n (%)
same,Adjudicated treatment-related ILD,[2]; [3],4 (5)^f n (%)
same,Any TEAE,[2]; [3],81 (100) n (%)
same,Grade ≥3 TEAE: Anemia/hemoglobin decrease,[2]; [3],6 (7) n (%)
same,Grade ≥3 TEAE: Dyspnea,[2]; [3],5 (6) n (%)
same,Grade ≥3 TEAE: Fatigue,[2]; [3],8 (10) n (%)
same,Grade ≥3 TEAE: Febrile neutropenia,[2]; [3],5 (6) n (%)
same,Grade ≥3 TEAE: Hypokalemia,[2]; [3],4 (5) n (%)
same,Grade ≥3 TEAE: Hypoxia,[2]; [3],5 (6) n (%)
same,Grade ≥3 TEAE: Lymphocyte count decrease/lymphopenia,[2]; [3],4 (5) n (%)
same,Grade ≥3 TEAE: Neutrophil count decrease/neutropenia,[2]; [3],12 (15) n (%)
same,Grade ≥3 TEAE: Platelet count decrease/thrombocytopenia,[2]; [3],21 (26) n (%)
same,Grade ≥3 TEAE: White blood cell count decrease/leukopenia,[2]; [3],5 (6) n (%)
same,Grade ≥3 TEAEs,[2]; [3],52 (64) n (%)
same,Grade ≥3 treatment-related TEAEs,[2]; [3],38 (47) n (%)
same,Serious TEAEs,[2]; [3],32 (40) n (%)
same,Serious treatment-related TEAEs,[2]; [3],15 (19) n (%)
same,TEAEs associated with death,[2]; [3],5 (6)^d n (%)
same,TEAEs associated with dose interruption,[2]; [3],30 (37) n (%)
same,TEAEs associated with dose reduction,[2]; [3],18 (22) n (%)
same,TEAEs associated with treatment discontinuation,[2]; [3],7 (9)^b n (%)
same,Treatment-related TEAEs,[2]; [3],78 (96) n (%)
same,Treatment-related TEAEs associated with death,[2]; [3],0 n (%)
same,Patients who experienced dose-limiting toxicities,"[2]; dose escalation part, 36 patients",5 patients
same,Recommended dose for expansion (RDE),[2]; i.v. once every 3 weeks,5.6 mg/kg
same,TEAEs associated with dose interruption,[2]; pooled RDE […] (n = 57),21 (37) n (%)
same,TEAEs associated with dose reduction,[2]; pooled RDE […] (n = 57),12 (21) n (%)
"seribantumab (antibody, chains of the INN, looked up) heavy: EVQLLESGGGLVQPGGSLRLSCAASGFTFSHYVMAWVRQAPGKGLEWVSSISSSGGWTLYADSVKGRFTISRDNSKNTLYLQMNSLRAEDTAVYYCTRGLKMATIFDYWGQGTLVTVSSASTKGPSVFPLAPCSRSTSESTAALGCLVKDYFPEPVTVSWNSGALTSGVHTFPAVLQSSGLYSLSSVVTVPSSNFGTQTYTCNVDHKPSNTKVDKTVERKCCVECPPCPAPPVAGPSVFLFPPKPKDTLMISRTPEVTCVVVDVSHEDPEVQFNWYVDGVEVHNAKTKPREEQFNSTFRVVSVLTVVHQDWLNGKEYKCKVSNKGLPAPIEKTISKTKGQPREPQVYTLPPSREEMTKNQVSLTCLVKGFYPSDIAVEWESNGQPENNYKTTPPMLDSDGSFFLYSKLTVDKSRWQQGNVFSCSVMHEALHNHYTQKSLSLSPG light: QSALTQPASVSGSPGQSITISCTGTSSDVGSYNVVSWYQQHPGKAPKLIIYEVSQRPSGVSNRFSGSKSGNTASLTISGLQTEDEADYYCCSYAGSSIFVIFGGGTKVTVLGQPKAAPSVTLFPPSSEELQANKATLVCLVSDFYPGAVTVAWKADGSPVKVGVETTKPSKQSNNKYAASSYLSLTPEQWKSHRSYSCRVTHEGSTVEKTVAPAECS",Efficacy of unconjugated HER3 antibody,[1]; in combination with erlotinib,did not confer clinically meaningful efficacy

# Source: publication PMC9401524 (Cancer Discovery, 2021)
